# Reference: patent publication US20240366776A1 (Hoffmann-La Roche, published 2024)
# Columns and labels:
# PD-1 = PD-1 (human, UniProt Q15116 25-167, limits assumed); assay: HTRF
# human IL-2 [1] = target: T1, human IL-2 (human, UniProt P60568 21-153, biotin-labeled in the IL2RB blocking assay); assay: HTRF
# T1 construct: also called biotin-labeled IL-2 (Acro Biosystems IL2-H82E4)
# human IL-2 [2] = target: T1, human IL-2; assay: HTRF IL-2:IL2RB
# T1 sequence (P60568 21-153 limits assumed): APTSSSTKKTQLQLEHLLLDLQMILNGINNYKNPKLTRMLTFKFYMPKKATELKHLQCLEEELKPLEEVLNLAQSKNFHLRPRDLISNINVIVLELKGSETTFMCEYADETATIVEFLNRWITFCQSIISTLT
# PD-1, sequence (Q15116 25-167 limits assumed): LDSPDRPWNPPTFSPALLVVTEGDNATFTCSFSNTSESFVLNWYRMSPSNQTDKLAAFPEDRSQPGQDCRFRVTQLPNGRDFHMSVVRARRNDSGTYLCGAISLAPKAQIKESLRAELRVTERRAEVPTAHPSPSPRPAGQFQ
PD1 Binding (PD-1),IL2 Binding (human IL-2 [1]),IL2RB Blocking (human IL-2 [2]),Binder
1680,628,1810,PD1-IL2-R02-B07 (scFv) QVQLVQSGAEVKKPGASVKVSCKASGDTFTRHYVHWVRQAPGQGLEWMGIINPSGGYASYAQKFQGRVTMTRDTSTSTVYMELSSLRSEDTAVYYCAAGLFIWGQGTLVTVSSASGGGGSGGGGSGGGGSHASDIQMTQSPSSLSASVGDRVTITCRASQSIGRWLAWYQQKPGKAPKLLIYSASNLETGVPSRFSGSGSGTDFTLTISSLQPEDFATYYCQQANSFPVTFGPGTKVDIK
1380,293,1210,"PD1-IL2-R02-C03 (SEQ ID NO: 32) (scFv, V5-tagged in the assay) scFv: QVQLVQSGAEVKKPGASVKVSCKASGYTFPRYHIHWVRQAPGQGLEWMGMINPSGGTTTYAQKFQGRVTMTRDTSTSTVYMELSSLRSEDTAVYYCARDTGLGYYYGSGDFDYWGQGTLVTVSSASGGGGSGGGGSGGGGSHASDIQMTQSPSSLSASVGDRVTITCRASQSISSWLAWYQQKPGKAPKLLIYAASSLQSGVPSRFSGSGSGTDFTLTISSLQPEDFATYYCQQSHSFPLTFGGGTKVEIK"
1300,298,1070,"PD1-IL2-R02-C02 (SEQ ID NO: 31) (scFv, V5-tagged in the assay) scFv: QVQLVQSGAEVKKPGVSVKVSCKASGYTFPRSYIHWVRQAPGQGLEWMGWINPHSGDTYYAQNFQGRVTMTRDTSTSTVYMELSSLRSEDTAVYYCARDTGLGYYYGSGDFDYWGQGTLVTVSSASGGGGSGGGGSGGGGSHASDIQMTQSPSSLSASVGDRVTITCRASQSISRYLNWYQQKPGKAPKLLIYTASSLQSGVPSRFSGSGSGTDFTLTISSLQPEDFATYYCQQANRFPLTFGPGTKVDIK"
1550,4,1550,"PD1-R04-C10 (scFv, tied by the comment 'PD1_R04_C10- Internal anti-PD1 mAb' of PEP001315) scFv: MSTSTEQKLISEEDLQVQLVQSGAEVKKPGASVKVSCKASGYTFTTYYMHWVRQAPGQGLEWMGIINPSGGGTLYAQKFQGRVTMTRDTSTSTVYMELSSLRSEDTAVYYCAAGLFIWGQGTTVTVSSASGGGGSGGGGSGGGGSHASDIVMTQSPDSLAVSLGERATINCKASQSLLHSSSNKNYLAWYQQKPGQPPKLLIYWASTRESGVPDRFSGSGSGTDFTLTISSLQAEDVAVYYCQQYYSTPITFGPGTKVDIKGSGLNDIFEAQKIEWHEGKPIPNPLLGLDST"
1660,2490,1610,PD1-IL2-R02-B05 (scFv) QVQLVQSGAEVKKPGASVKVSCKASGYTFTNYYIHWVRQAPGQGLEWMGIINPRAGYTSYALKFQGRVTMTRDTSTSTVYMELSSLRSEDTAVYYCAGGWLDWGQGTLVTVSSASGGGGSGGGGSGGGGSHASDIQMTQSPSSLSASVGDRVTITCRASQSISSWLAWYQQKPGKAPKLLIYAASSLQSGVPSRFSGSGSGTDFTLTISSLQPEDFATYYCQQSFTMPITFGQGTRLEIK
